# Results as given in US20190048038A1, “METHOD FOR GENERATING CELL-PENETRATING STAPLED PEPTIDES THAT LACK NONSPECIFIC MEMBRANE-LYTIC PROPERTIES FOR THERAPEUTIC TARGETING” (Dana-Farber Cancer Institute, Inc., priority 2016, published 2019).
# Positions of bridges follow the written chain, without caps; N, C: chain ends. Non-standard residues stand in square brackets, D forms with d. Residues, ends and D or L forms follow the SMILES beside them. No end group written: not given here. *: point of attachment. FITC = O=C1OC2(c3ccc(O)cc3Oc3cc(O)ccc32)c2ccc(NC(=S)*)cc21; R8 = C=CCCCCCC[C@@](C)(N)C(=O)O; Cba = N[C@@H](CC1CCC1)C(=O)O; S5 = C=CCCC[C@](C)(N)C(=O)O; βAla = NCCC(=O)O
# Experiments:
# [1] = test system: mouse embryonic fibroblasts (MEFs); test: ImageXpress microscopy cellular uptake of FITC-peptides (TIFI); type: cell-based; details: MEFs 2×10^4 cells/well, 500 nM FITC-peptide, 4 h, 0% FBS, per cell basis
# Text: The cellular penetrance of a peptide of interest can be assessed by any method known in the art. For example, ImageXpress microscopy analysis may be employed as described in Example 1. The total internalized FITC intensity (TIFI) can be used as a way to determine cellular uptake of a hydrocarbon-stapled and/or stitched peptide by a cell (e.g., any cell described herein). Methods of determining TIFI are described in detail in Examples 2 and 3 of the instant specification. Briefly, a custom module (CM) was created to develop a rigorous quantitation platform for measuring cellular uptake of hydrocarbon-stapled and/or stitched peptides derivatized with a FITC fluorophore at the N-terminus. The CM was developed based on (1) defining the parameters of cellular uptake (e.g., excluding extracellular aggregates and auto-fluorescent debris), (2) defining a pixel boundary to avoid quantitation of extracellular, membrane-adherent peptides, (3) excluding out-of-focus fluorescence from the FITC signal outliers. Once the CM parameters are set, images can be acquired at 20× and 40× magnification for per cell basis fluorescence, and four distinct central locations of the cellular field are visualized. Next signal-to-noise ratios are maximized to ensure optimal sensitivity and specificity of internal FITC-peptide signal. […]
# [2] = test system: BCL-XL-reconstituted p185^+Arf^−/−Mcl-1^del B-ALL cells; test: LDH release assay (membrane lysis) in B-ALL cells; details: 10 μM peptide, 30 min, serum-free
# Method: Data are normalized based on the response to treatment with 1% Triton X-100 (100% release) and media alone (0% LDH release). Error bars are mean±s.d. for experiments performed in technical duplicate and repeated twice.
# B-ALL and Jurkat T cells were plated in 96-well format (2×10^4 cells per well) in serum-free RPMI. […] The plate was centrifuged at 1500 rpm for 5 min at 4° C., and 80 μL of cell culture media was transferred to a clear plate (Corning), incubated with 80 μL of LDH reagent (Roche) for 15 min while shaking, and absorbance measured at 490 nm on a microplate reader (SpectraMax M5 Microplate Reader, Molecular Devices).
# In order to identify compounds whose cytotoxicity correlates with the capacity for cellular uptake and intracellular target engagement, it is important to rule out nonspecific cytotoxicity due to potential plasma membrane lysis.
# [3] = target: T1, BCL-XLΔC (Homo sapiens, UniProt Q07817); test: IC50 (nM); design: BCL-XL ΔC was expressed as a glutathione-S-transferase (GST) fusion protein; GST (N, cleaved yes); made in house; host or cells: Escherichia coli BL21 (DE3), pGEX2T vector
# Text: Table printed on a drawing sheet, FIG. 4B
# Head of the field: IC50 (nM)
# First copying reader's note: The table is the legend of a binding plot (mP vs [BCL-XL ΔC], M); plot marker symbols before each sequence are left out, and some mutated residues are printed inside a box.
# [4] = target: T1, BCL-XLΔC; test: fluorescence polarization
# Target sequence in this assay (Q07817 1-212, stated change not applied): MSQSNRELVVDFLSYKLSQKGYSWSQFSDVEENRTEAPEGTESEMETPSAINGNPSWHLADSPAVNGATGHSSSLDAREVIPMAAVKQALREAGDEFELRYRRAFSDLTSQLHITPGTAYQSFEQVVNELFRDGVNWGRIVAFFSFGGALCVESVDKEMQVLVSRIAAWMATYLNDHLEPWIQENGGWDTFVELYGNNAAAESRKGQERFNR
# [5] = Percent α-helicity by circular dichroism; type: physicochemical; details: 222 nm
# Method: FIG. 19 is a table showing the sequence composition and biophysical parameters of a BIM BH3 staple scanning library. Hydrophobicity was calculated using techniques generally known in the art^39, with “X” assigned the hydrophobicity value of Leu. Retention time in minutes reflects the peptide elution time from an HPLC C18 column (Agilent, 1200) run for 20 minutes using a 5-95% water: acetonitrile gradient (10 mM ammonium carbonate). Percent α-helicity of stapled peptides (50 μM, 10% acetonitrile in water) was derived from circular dichroism spectra using the mdeg value at 222 nm, as described^34. Net charge was calculated by summing the positive and negative charges of Arg and Asp/Glu, respectively. The isoelectric point (pI) calculation employed the EMBOSS values for pKa.
# The alpha-helicity of a peptide of interest can be determined by any method known in the art. In some cases, circular dichroism or nuclear magnetic resonance spectroscopy (NMR) may be employed. Peptides are dissolved in an aqueous solution (e.g., 5 mM potassium phosphate solution at pH 7, or distilled H2O, to concentrations of 25-50 μM). […] The α-helical content of each peptide is calculated by dividing the mean residue ellipticity by the reported value for a model helical decapeptide (Yang et al., Methods Enzymol. 130:208 (1986)). […]
# [6] = test system: SAOS-2 cells; test: Epifluorescence (IXM) microscopy cellular penetrance of ATSP-7041; type: cell-based
# Text: Error bars represent mean±s.d.
# Images were acquired by IXM.
# [7] = test system: cells; details: 20 μM peptide
# Text: Data are normalized based on the response to treatment with 1% Triton X-100 (100% release) and media alone (0% LDH release). Error bars are mean±s.d.
compound,measurement,setting,value
"CC[C@H](C)[C@H](NC(=O)CCNC(=S)Nc1ccc2c(c1)C(=O)OC21c2ccc(O)cc2Oc2cc(O)ccc21)C(=O)N[C@@H](Cc1c[nH]c2ccccc12)C(=O)N[C@H](C(=O)N[C@@H](C)C(=O)N[C@@H](CCC(N)=O)C(=O)N[C@@H](CCC(=O)O)C(=O)N[C@@H](CC(C)C)C(=O)N[C@@H](CCCNC(=N)N)C(=O)N[C@@]1(C)CCCC=CCCC[C@@](C)(C(=O)N[C@@H](Cc2ccccc2)C(=O)N[C@@H](CC(N)=O)C(=O)N[C@@H](CCC(=O)O)C(=O)N[C@@H](Cc2ccc(O)cc2)C(=O)N[C@@H](Cc2ccc(O)cc2)C(=O)N[C@@H](C)C(=O)N[C@@H](CCCNC(=N)N)C(=O)N[C@@H](CCCNC(=N)N)C(N)=O)NC(=O)[C@H](CC(=O)O)NC(=O)CNC(=O)[C@H]([C@@H](C)CC)NC1=O)[C@@H](C)CC [A161E, IWIAQELRXIGDXFNEYYARR]","total internalized FITC intensity (TIFI), cellular uptake",[1],retention of high level TIFI
"CC[C@H](C)[C@H](NC(=O)CCNC(=S)Nc1ccc2c(c1)C(=O)OC21c2ccc(O)cc2Oc2cc(O)ccc21)C(=O)N[C@@H](Cc1c[nH]c2ccccc12)C(=O)N[C@H](C(=O)N[C@@H](C)C(=O)N[C@@H](CCC(N)=O)C(=O)N[C@@H](CCC(=O)O)C(=O)N[C@@H](CC(C)C)C(=O)N[C@@H](CCCNC(=N)N)C(=O)N[C@@]1(C)CCCC=CCCC[C@@](C)(C(=O)N[C@@H](Cc2ccccc2)C(=O)N[C@@H](CC(N)=O)C(=O)N[C@@H](C)C(=O)N[C@@H](Cc2ccc(O)cc2)C(=O)N[C@@H](Cc2ccc(O)cc2)C(=O)N[C@H](C(=O)N[C@@H](CCCNC(=N)N)C(=O)N[C@@H](CCCNC(=N)N)C(N)=O)[C@@H](C)O)NC(=O)[C@H](CC(=O)O)NC(=O)CNC(=O)[C@H]([C@@H](C)CC)NC1=O)[C@@H](C)CC [A164T, IWIAQELRXIGDXFNAYYTRR]","LDH release, membrane lytic activity",[2],promote lysis
CC[C@H](C)[C@H](NC(=O)CCNC(=S)Nc1ccc2c(c1)C(=O)OC21c2ccc(O)cc2Oc2cc(O)ccc21)C(=O)N[C@@H](Cc1c[nH]c2ccccc12)C(=O)N[C@H](C(=O)N[C@@H](C)C(=O)N[C@@H](CCC(N)=O)C(=O)N[C@@H](CCC(=O)O)C(=O)N[C@@H](CC(C)C)C(=O)N[C@@H](CCCNC(=N)N)C(=O)N[C@@]1(C)CCCC=CCCC[C@@](C)(C(=O)N[C@@H](Cc2ccccc2)C(=O)N[C@@H](CC(N)=O)C(=O)N[C@@H](C)C(=O)N[C@@H](Cc2ccc(O)cc2)C(=O)N[C@@H](Cc2ccc(O)cc2)C(=O)N[C@@H](C)C(=O)N[C@@H](CCCNC(=N)N)C(=O)N[C@@H](CCCNC(=N)N)C(N)=O)NC(=O)[C@H](CC(C)C)NC(=O)CNC(=O)[C@H]([C@@H](C)CC)NC1=O)[C@@H](C)CC [IWIAQELRXIGLXFNAYYARR] ({FITC-βAla}-IWIAQELR[S5]IGL[S5]FNAYYARR-NH2; staple 9-13),IC50,[3],> 1000 nM
"CC[C@H](C)[C@H](NC(=O)CCNC(=S)Nc1ccc2c(c1)C(=O)OC21c2ccc(O)cc2Oc2cc(O)ccc21)C(=O)N[C@@H](CCCNC(=N)N)C(=O)N[C@H](C(=O)N[C@@H](C)C(=O)N[C@@H](CCC(N)=O)C(=O)N[C@@H](CCC(=O)O)C(=O)N[C@@H](CC(C)C)C(=O)N[C@@H](CCCNC(=N)N)C(=O)N[C@@]1(C)CCCC=CCCC[C@@](C)(C(=O)N[C@@H](Cc2ccccc2)C(=O)N[C@@H](CC(N)=O)C(=O)N[C@@H](C)C(=O)N[C@@H](Cc2ccc(O)cc2)C(=O)N[C@@H](Cc2ccc(O)cc2)C(=O)N[C@@H](C)C(=O)N[C@@H](CCCNC(=N)N)C(=O)N[C@@H](CCCNC(=N)N)C(N)=O)NC(=O)[C@H](CC(=O)O)NC(=O)CNC(=O)[C@H]([C@@H](C)CC)NC1=O)[C@@H](C)CC [W147R, IRIAQELRXIGDXFNAYYARR]","LDH release, membrane lytic activity",[2],promote lysis
BIM SAHBA1,IC50,[4],13.8 nM
IWIALELRXIGDXFNAYYARR,IC50,[4],> 1000 nM
IWIAQELRXIGDXFNAIYARR,IC50,[4],59.4 nM
IWIAQELRXIGDXFNAYYIRR,IC50,[4],45.7 nM
IWIAQLLRXIGDXFNAYYARR,IC50,[4],> 1000 nM
LTFZEYWANCbXSAA (LTF[R8]EYWAN[Cba][S5]SAA; staple 4-11) [ATSP-7041],α-helicity,[5],70%
same,cellular penetrance (TIFI value),[6],effective cellular penetrance
same,nonspecific membrane lytic properties (LDH release),[7],lacks nonspecific membrane lytic properties
